B1: CDC25A (parent)
chain: QLIDPDENKENEAFEFKKPVRPVS

Variants of: B1
Assay: protein stability index of a GFP-peptide fusion (GPS, HEK-293T) (PSI 1-6); higher = more stable
Conditions: c terminus: a fixed tail appended
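Also: lentivirally expressed fusions sorted by FACS into six bins by GFP to DsRed ratio, PSI derived from sequencing read proportions per bin multiplied by bin number.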

| Variant | protein stability index |
| --- | --- |
| QLIDPDENKENEAMEFKKPVRPVS [F14M] | 3.8 |
| QLIDPDENKENEACEFKKPVRPVS [F14C] | 4.55 |
| QLIDPDENKENEATEFKKPVRPVS [F14T] | 3.73 |
| QLIDPDENKENEAHEFKKPVRPVS [F14H] | 4.42 |
| QLIDPDENKENEAKEFKKPVRPVS [F14K] | 5 |
| QLIDPDENKENEAYEFKKPVRPVS [F14Y] | 4.12 |
| QLIDPDENKENEAAEFKKPVRPVS [F14A] | 4.68 |
| QLIDPDENKENEAREFKKPVRPVS [F14R] | 3.79 |
| QLIDPDENKENEAQEFKKPVRPVS [F14Q] | 3.94 |
| QLIDPDENKENEANEFKKPVRPVS [F14N] | 3.98 |
| QLIDPDENKENEAEEFKKPVRPVS [F14E] | 4.78 |
| QLIDPDENKENEAVEFKKPVRPVS [F14V] | 4.55 |
| QLIDPDENKENEASEFKKPVRPVS [F14S] | 4.5 |
| QLIDPDENKENEALEFKKPVRPVS [F14L] | 4.21 |
| QLIDPDENKENEAIEFKKPVRPVS [F14I] | 4.04 |
| QLIDPDENKENEAGEFKKPVRPVS [F14G] | 4.53 |
| QLIDPDENKENEAWEFKKPVRPVS [F14W] | 3.2 |
| QLIDPDENKENEADEFKKPVRPVS [F14D] | 5.04 |
| QLIDPDENKENEAPEFKKPVRPVS [F14P] | 4.92 |
| QLIDPDENKENEAFESKKPVRPVS [F16S] | 4.21 |
| QLIDPDENKENEAFEMKKPVRPVS [F16M] | 3.73 |
| QLIDPDENKENEAFEDKKPVRPVS [F16D] | 4.46 |
| QLIDPDENKENEAFEAKKPVRPVS [F16A] | 4.03 |
| QLIDPDENKENEAFERKKPVRPVS [F16R] | 4.53 |

| Variant | protein stability index |
| --- | --- |
| QLIDPDENKENEAFEGKKPVRPVS [F16G] | 3.76 |
| QLIDPDENKENEAFELKKPVRPVS [F16L] | 4.56 |
| QLIDPDENKENEAFEQKKPVRPVS [F16Q] | 3.73 |
| QLIDPDENKENEAFEEKKPVRPVS [F16E] | 4.18 |
| QLIDPDENKENEAFEVKKPVRPVS [F16V] | 4.39 |
| QLIDPDENKENEAFEWKKPVRPVS [F16W] | 4.33 |
| QLIDPDENKENEAFETKKPVRPVS [F16T] | 4.48 |
| QLIDPDENKENEAFEYKKPVRPVS [F16Y] | 3.58 |
| QLIDPDENKENEAFEPKKPVRPVS [F16P] | 3.83 |
| QLIDPDENKENEAFEHKKPVRPVS [F16H] | 4.56 |
| QLIDPDENKENEAFEKKKPVRPVS [F16K] | 3.99 |
| QLIDPDENKENEAFEIKKPVRPVS [F16I] | 3.35 |
| QLIDPDENKENEAFECKKPVRPVS [F16C] | 4.6 |
| QLIDPDENKENEAFENKKPVRPVS [F16N] | 4.08 |
| QLIDPDENKENEAFNFKKPVRPVS [E15N] | 3.13 |
| QLIDPDENKENEAFRFKKPVRPVS [E15R] | 2.37 |
| QLIDPDENKENEAFYFKKPVRPVS [E15Y] | 3.02 |
| QLIDPDENKENEAFDFKKPVRPVS [E15D] | 3.77 |
| QLIDPDENKENEAFMFKKPVRPVS [E15M] | 4.37 |
| QLIDPDENKENEAFVFKKPVRPVS [E15V] | 3.36 |
| QLIDPDENKENEAFGFKKPVRPVS [E15G] | 2.89 |
| QLIDPDENKENEAFAFKKPVRPVS [E15A] | 4.01 |
| QLIDPDENKENEAFHFKKPVRPVS [E15H] | 3.57 |
| QLIDPDENKENEAFQFKKPVRPVS [E15Q] | 4.08 |

| Variant | protein stability index |
| --- | --- |
| QLIDPDENKENEAFLFKKPVRPVS [E15L] | 3.36 |
| QLIDPDENKENEAFTFKKPVRPVS [E15T] | 3.92 |
| QLIDPDENKENEAFSFKKPVRPVS [E15S] | 4 |
| QLIDPDENKENEAFIFKKPVRPVS [E15I] | 3.7 |
| QLIDPDENKENEAFKFKKPVRPVS [E15K] | 4.3 |
| QLIDPDENKENEAFWFKKPVRPVS [E15W] | 3.54 |
| QLIDPDENKENEAFPFKKPVRPVS [E15P] | 4.16 |
| QLIDPDENKENEAFFFKKPVRPVS [E15F] | 3.41 |
| QLIDPDENKENEAFEFKKGVRPVS [P19G] | 4.06 |
| QLIDPDENKENEAFEFKKCVRPVS [P19C] | 3.6 |
| QLIDPDENKENEAFEFKKWVRPVS [P19W] | 3.87 |
| QLIDPDENKENEAFEFKKIVRPVS [P19I] | 4.07 |
| QLIDPDENKENEAFEFKKMVRPVS [P19M] | 3.74 |
| QLIDPDENKENEAFEFKKQVRPVS [P19Q] | 4.02 |
| QLIDPDENKENEAFEFKKYVRPVS [P19Y] | 3.07 |
| QLIDPDENKENEAFEFKKSVRPVS [P19S] | 4.09 |
| QLIDPDENKENEAFEFKKLVRPVS [P19L] | 3.52 |
| QLIDPDENKENEAFEFKKFVRPVS [P19F] | 4.44 |
| QLIDPDENKENEAFEFKKRVRPVS [P19R] | 3.85 |
| QLIDPDENKENEAFEFKKHVRPVS [P19H] | 3.95 |
| QLIDPDENKENEAFEFKKNVRPVS [P19N] | 4.43 |
| QLIDPDENKENEAFEFKKAVRPVS [P19A] | 4.44 |
| QLIDPDENKENEAFEFKKTVRPVS [P19T] | 4.09 |
| QLIDPDENKENEAFEFKKVVRPVS [P19V] | 4.42 |

| Variant | protein stability index |
| --- | --- |
| QLIDPDENKENEAFEFKPPVRPVS [K18P] | 4.29 |
| QLIDPDENKENEAFEFKIPVRPVS [K18I] | 3.97 |
| QLIDPDENKENEAFEFKCPVRPVS [K18C] | 4.1 |
| QLIDPDENKENEAFEFKLPVRPVS [K18L] | 4.39 |
| QLIDPDENKENEAFEFKRPVRPVS [K18R] | 3.89 |
| QLIDPDENKENEAFEFKSPVRPVS [K18S] | 4.55 |
| QLIDPDENKENEAFEFKGPVRPVS [K18G] | 4.04 |
| QLIDPDENKENEAFEFKHPVRPVS [K18H] | 3.82 |
| QLIDPDENKENEAFEFKMPVRPVS [K18M] | 3.66 |
| QLIDPDENKENEAFEFKFPVRPVS [K18F] | 4.33 |
| QLIDPDENKENEAFEFKTPVRPVS [K18T] | 4.33 |
| QLIDPDENKENEAFEFKNPVRPVS [K18N] | 4.4 |
| QLIDPDENKENEAFEFKDPVRPVS [K18D] | 4.47 |
| QLIDPDENKENEAFEFKEPVRPVS [K18E] | 5.52 |
| QLIDPDENKENEAFEFKVPVRPVS [K18V] | 4.23 |
| QLIDPDENKENEAFEFKYPVRPVS [K18Y] | 4 |
| QLIDPDENKENEAFEFKWPVRPVS [K18W] | 3.73 |
| QLIDPDENKENEAFEFKAPVRPVS [K18A] | 3.7 |
| QLIDPDENKENEAFEFKKPVGPVS [R21G] | 4.97 |
| QLIDPDENKENEAFEFKKPVQPVS [R21Q] | 4.67 |
| QLIDPDENKENEAFEFKKPVMPVS [R21M] | 3.81 |
| QLIDPDENKENEAFEFKKPVFPVS [R21F] | 2.74 |

From the supplement of paper PMC10567573
